Measurements taken from US20240400663A1 (Regeneron, published 2024).

B1: H1H29171P2 (antibody, V domains shown)
VH: QVQLVESGGGVVQPGRSLRLSCAASGFTFSSYGMHWVRQAPGKGLEWVAVISYDGSNKYYADSVKGRFTISRDNSKNTLYLQMNSLRAEDTAVYYCAKDDWNYDAFDIWGQGTMVTVSS
VL: not shown
B2: H1H29149P2 (antibody, V domains shown)
VH: QVQLQESGPGLVKPSQTLSLTCTVSGGSISSGGYYWNWIRQHPGKGLEWIGYIYYSGSTYYNPSLKSRVTISVDTSKNQFSLKLGSVTAADTAVYYCARAPPYNWFDYWGQGTLVTVSS
VL: not shown
B3: H1H29138P (antibody, V domains shown)
VH: QVQLVESGGGVVQPGRSLRLSCAASGFTFSTYGMHWVRQAPGKGLEWVAVIWYDGTNKYYADSVKGRFTISRDNSKNTLYLQMISLRAEDTAVYYCARDPSGGDHYYYYGMDVWGQGTTVTVSS
VL: DIQMTQSPSSLSASVGDRITITCQASQDISNYLNWYQQKPGKAPNLLISDASDLETGVPSRFSGSGSGTDFTFTISSLQPEDFATYYCQQYDNIPITFGQGTRLEIKR
B4: H1H29192P2 (antibody, V domains shown)
VH: QVQLVQSGAEVKKPGASVRVSCMASGYTFTGYYMHWVRQAPGQGLEWMGWINPNSGGTKYAQKFQGRVTMTRDTSISTAYMELSRLRSDDTAVYYCAREEVDDFWSGYLDYWGQGTLVTVSS
VL: not shown
B5: H1H29094P (antibody, V domains shown)
VH: not shown
VL: DIQMTQSPSSLSASVGDRVTITCQASQDINRDLNWYQQKSGKGPKLLIYDASNLETGVPSRFSGNRFGTDFTFTISRLQPEDIATYFCQQYKNLPYTFGQGTKLEIKR
B6: H1H29166P2 (antibody, V domains shown)
VH: EVQLVESGGGLLQPGRSLRLSCVASGFTFDDYAMHWVRQAPGKGLEWVSGISWNSESIGYADSVRGRFTISRDNAKNSLYLQMNSLRAEDTALYYCAKAPYSGTYFEYFRHWGQGTLVTVSS
VL: not shown
B7: H1H29179P2 (antibody, V domains shown)
VH: QVQLQESGPGLVKPSQTLSLTCTVSGGSISSSGYYWSWIRQHPGRGLEWIGYIYYSGSTYYNPSLKSRVTISVDTSKNQFSLKLNSVTAADTAVYYCARVDYGSGSSFDYWGQGTLVTVSS
VL: not shown
B8: H1H29151P2 (antibody, V domains shown)
VH: QVQLVESGGGLVKPGGSLRLSCAASGFTFSDYYMNWVRQAPGKGLEWVSYISNSGNTQYYADSVKGRFTISRDNAKNSLFLQMNSLRAEDTAVYYCTREGLEYSSSEPFDYWGQGTLVTVSS
VL: not shown
B9: H1H29183P2 (antibody, V domains shown)
VH: QVQLVQSGPEVKKPGASVKVSCKASGYTFTSYGISWVRQAPGQGLEWLGWISGFNGRTDYTEKLQDRITMTTDRSSSTAYMELRSLRYDDTAVYYCARDGLEKLGDYWGQGTLVTVSS
VL: not shown
B10: H1H29141P (antibody, V domains shown)
VH: QVQLVESGGGVVQPGRSLRLSCAASGFTFSSYGMHWVRQAPGKGLEWVTFISFDERNKYYADSVKGRFTISRDNSKNTLYLQMNSLRAEDTAMYYCASEVGYSFGHDAFDIWGQGTMVTVSS
VL: not shown
B11: H1H29146P2 (antibody, V domains shown)
VH: EVQLVESGGGLVQPGGSLQLSCAASGFAFSDSAIYWVRQASGKGLEWVGRIRNKANRFATAYGASVKGRFSIHRDDSKNTAYLQMNSLKTEDTAVYYCARHGHDTLTEGYGMDVWGQGTTVTVSS
VL: not shown
B12: H1H29163P2 (antibody, V domains shown)
VH: QVQLVQSGAEVKKPGASVKVSCKTSGYTFTAYYIHWVRQAPGQGLEWMGWINPNNGDTNYALRFQGRVTMTRDMSINTAYMELRGLRSDDTAVYYCARDDLAAAGIGWFDSWGQGTLVTVSS
VL: not shown
B13: H1H29125P (antibody, V domains shown)
VH: QVQLVESGGGVVQPGRSLRLSCAASGFTFSSYGMHWVRQAPGKGLEWMAVISYDGSNKYYADSVKGRFTISRDNSKNTLFLQMNSLRPEDTAVYYCAQDGSSAIYYFYGMDVWGQGTTVTVSS
VL: DIQMTQSPSSLSASIGDRVTITCRASQDINNYLAWFQQKPGKAPKSLIYAASSLQSGVPSKFSGSGSGTDFTLTISSLQPEDFATYYCLQYNSYHPTFGQGTKLEIKR

These binders were tested against PfRH5 of Plasmodium falciparum strain HB3 (on live parasites) (Plasmodium falciparum) (assay: cell-based or functional assay).

| Binder | Max growth inhibition (%) HB3 [%] |
| --- | --- |
| B1 | 0.52 |
| B2 | 40 |
| B3 | 51.4 |
| B4 | 5.62 |
| B5 | 45.4 |
| B6 | 54.9 |
| B7 | 40.9 |
| B8 | 31.7 |
| B9 | 4.92 |
| B10 | 50 |
| B11 | 33.9 |
| B12 | 56.5 |

Each binder was assayed against PfRH5 of Plasmodium falciparum strain RF7 (on live parasites) (Plasmodium falciparum) (assay: cell-based or functional assay).

| Binder | Max growth inhibition (%) RF7 [%] |
| --- | --- |
| B1 | -12.5 |
| B2 | 14.7 |
| B3 | 51.4 |
| B4 | -7.69 |
| B13 | 21 |
| B5 | 15.2 |
| B6 | 19.4 |
| B7 | -2.99 |
| B8 | 18.3 |
| B9 | -6.27 |
| B10 | 32.1 |
| B11 | 5.97 |
| B12 | 10.7 |

Each binder was assayed against PfRH5 of Plasmodium falciparum strain Cam3.II (on live parasites) (Plasmodium falciparum) (assay: cell-based or functional assay).

| Binder | Max growth inhibition (%) Cam3.II [%] |
| --- | --- |
| B1 | 5.45 |
| B2 | 36.2 |
| B3 | 48.7 |
| B4 | -3.38 |
| B13 | 42.7 |
| B5 | 26.2 |
| B6 | 55.9 |
| B7 | 33.4 |
| B8 | 26.3 |
| B9 | 8.66 |
| B10 | 49.3 |
| B11 | 8.18 |
| B12 | 46.7 |

These binders were tested against PfRH5 of Plasmodium falciparum strain W2-mef (on live parasites) (Plasmodium falciparum) (assay: cell-based or functional assay).

| Binder | Max growth inhibition (%) W2-mef [%] |
| --- | --- |
| B1 | 0.74 |
| B2 | 42.8 |
| B3 | 66.4 |
| B4 | 4.35 |
| B13 | 64.6 |
| B5 | 34.9 |
| B6 | 61.9 |
| B7 | 22.9 |
| B8 | 53.9 |
| B9 | -0.55 |
| B10 | 56.2 |
| B11 | 0.57 |
| B12 | 63.7 |

What follows are binders tested against PfRH5 of Plasmodium falciparum strain FCR-1/FVO (on live parasites) (Plasmodium falciparum) (assay: cell-based or functional assay).

| Binder | Max growth inhibition (%) FCR-1/FVO [%] |
| --- | --- |
| B1 | 11.7 |
| B2 | 58 |
| B3 | 84.1 |
| B4 | 15.1 |
| B13 | 67.6 |
| B5 | 51.2 |
| B6 | 69.7 |
| B7 | 49 |
| B8 | 53.7 |
| B9 | 16.1 |
| B10 | 74.2 |
| B11 | 7.32 |
| B12 | 64.5 |

What follows are binders tested against PfRH5 of Plasmodium falciparum strain Dd2 (on live parasites) (Plasmodium falciparum) (assay: cell-based or functional assay).

| Binder | Max growth inhibition (%) Dd2 [%] |
| --- | --- |
| B1 | 7.71 |
| B3 | 74.4 |
| B4 | -15.2 |
| B13 | 51.4 |
| B5 | 41.6 |
| B6 | 60 |
| B7 | 13.5 |
| B8 | 58 |
| B9 | 0.68 |
| B10 | 65.3 |
| B12 | 61.2 |

What follows are binders tested against PfRH5 of Plasmodium falciparum strain 7G8 (on live parasites) (Plasmodium falciparum) (assay: cell-based or functional assay).

| Binder | Max growth inhibition (%) 7G8 [%] |
| --- | --- |
| B1 | 17 |
| B3 | 57.4 |
| B4 | 12.4 |
| B13 | 47 |
| B5 | 29.9 |
| B6 | 54.6 |
| B7 | 34.1 |
| B8 | 47.5 |
| B9 | 17.8 |
| B10 | 54.6 |
| B11 | 19.1 |
| B12 | 62.6 |

Each binder was assayed against PfRH5 of Plasmodium falciparum strain D10 (on live parasites) (Plasmodium falciparum) (assay: cell-based or functional assay).

| Binder | Max growth inhibition (%) D10 [%] |
| --- | --- |
| B1 | 10.6 |
| B2 | 66 |
| B3 | 57.1 |
| B4 | 8.7 |
| B13 | 75.4 |
| B5 | 35.9 |
| B6 | 70.9 |
| B7 | 62.5 |
| B8 | 38.7 |
| B9 | 6.79 |
| B10 | 50 |
| B11 | 10.8 |
